Common to all, as to details: Pseudomonas putida
Substrate in series [1]: O=C([O-])[C@H]([O-])c1ccccc1.[Mg+2]
Description: Michaelis-Menten constant of mandelate racemase was determined at pH 7.5
Substrate in series [2]: O=C([O-])[C@H]([O-])c1ccccc1.[Mg+2]
The source holds these as a separate data set.
Description: Michaelis-Menten constant of mandelate racemase was determined at pH 6.3

Substrate in series [3]: O=C([O-])[C@H]([O-])c1ccccc1.[Mg+2]
Description: Michaelis-Menten constant of mandelate racemase was determined at pH 8.7
The source holds these as a separate data set.

B1: Mandelate racemase (Pseudomonas putida), P11444 (protein)
chain: MSEVLITGLRTRAVNVPLAYPVHTAVGTVGTAPLVLIDLATSAGVVGHSYLFAYTPVALKSLKQLLDDMAAMIVNEPLAPVSLEAMLAKRFCLAGYTGLIRMAAAGIDMAAWDALGKVHETPLVKLLGANARPVQAYDSHSLDGVKLATERAVTAAELGFRAVKTKIGYPALDQDLAVVRSIRQAVGDDFGIMVDYNQSLDVPAAIKRSQALQQEGVTWIEEPTLQHDYEGHQRIQSKLNVPVQMGENWLGPEEMFKALSIGACRLAMPDAMKIGGVTGWIRASALAQQFGIPMSSHLFQEISAHLLAATPTAHWLERLDLAGSVIEPTLTFEGGNAVIPDLPGVGIIWREKEIGKYLV
B1: the figures for the Michaelis-Menten constant (Km) in series [1], in series [2] and in series [3] were 440 µM, 950 µM and 2020 µM, respectively.

For the origin of these results see ChEMBL document CHEMBL1141065, “Inhibition of mandelate racemase by the substrate-intermediate-product analogue 1,1-diphenyl-1-hydroxymethylphosphonate” (Bioorg Med Chem Lett, 2005).
